Source: patent publication US11453702B2, “Bicyclic peptide ligands specific for Nectin-4” (priority 2018, dated 2022)
*1 amine or outer side, *2 acyl side, *3 side chain or, on linkers, in order; H or OH if unused. Where a SMILES comes first, the peptide text is derived from it. Bridges are numbered along the chain shown (N, C = ends). Roman numbers before positions name the chains, in order. [ ]: non-standard residue; d: D form. The star is where a group is joined. ξ: configuration not given here. TATA = O=C(CC[*:1])N1CN(C(=O)CC[*:2])CN(C(=O)CC[*:3])C1; Dolaproine = CO[C@@H]([C@@H]1CCCN1)[C@@H](C)C(=O)O; X1 = CC[C@H](C)C(C(CC(=O)[*:2])OC)N(C)[*:1]; Dil = CC[C@H](C)[C@H](NC)[C@@H](CC(=O)O)OC; 1Nal = N[C@@H](Cc1cccc2ccccc12)C(=O)O; X3 = O=C(CCCC(=O)[*:2])NCCC(=O)[*:1]; PABC = O=C(OCc1ccc(N[*:1])cc1)[*:2]; X4 = C[C@@H](N*)[C@@H](O)c1ccccc1; Hyp = O=C(O)[C@@H]1C[C@@H](O)CN1; hArg = N=C(N)NCCCC[C@H](N)C(=O)O; Cit = NC(=O)NCCC[C@H](N)C(=O)O; X2 = CC(N*)[C@@H](O)c1ccccc1; NMeV = CN[C@H](C(=O)O)C(C)C; ξNMeV = CNC(C(=O)O)C(C)C; ξV = CC(C)C(N)C(=O)O; Sar = CNCC(=O)O

Legend:
[1] = system: CTG-1771, CTG-1171, CTG-1106 and CTG-0896 PDX models; conditions: all models
Excerpt: To evaluate the antitumor activity of Bicycle Agent in Low Passage Champions TumorGraft Models of Human Breast, Esophageal, and Bladder Cancer in Immunocompromised mice.
Pre-study Animals: When sufficient stock animals reach 1.0-1.5 cm^3, tumors will be harvested for re-implantation into pre-study animals. Pre-study animals will be implanted unilaterally on the left flank with tumor fragments harvested from stock animals. Each animal is implanted from a specific passage lot and documented.
Study Animals: Pre-study tumor volumes are recorded for each experiment beginning seven to ten days after implantation. When tumors reach an average tumor volume of 150-300 mm^3, animals will be matched by tumor volume into treatment or control groups to be used for dosing and dosing initiated on Day 0.

[2] = BCY8245 (BT8009) injected at 3 mg/kg; MDA-MB-468 xenograft animals
Description: At various timepoints, animals were euthanized and plasma and tumour taken and snap frozen. Samples were analysed for MMAE.

HT-1376 xenograft = conditions: 5 mg/kg qw, during the treatment schedule
Description: All data were analyzed using GraphPad Prism 5.0. P<0.05 was considered to be statistically significant.
The objective of the research is to evaluate the in vivo anti-tumor efficacy of test articles in treatment of HT-1376 xenograft in CB17-SCID mice.
The HT-1376 tumor cells were maintained in vitro as a monolayer culture in EMEM medium supplemented with 10% heat inactivated fetal bovine serum at 37° C. in an atmosphere of 5% CO2 in air. The tumor cells were routinely subcultured twice weekly by trypsin-EDTA treatment. The cells growing in an exponential growth phase were harvested and counted for tumor inoculation.
Each mouse was inoculated subcutaneously at the right flank with HT-1376 tumor cells (5×10^6) in 0.2 ml of PBS with matrigel (1:1) for tumor development. Animals were randomized when the average tumor volume reached 153-164 mm^3. The test article administration and the animal numbers in each group were shown in the experimental design table.
The HT-1376 tumor cells will be maintained in EMEM medium supplemented with 10% heat inactivated fetal bovine serum at 37° C. in an atmosphere of 5% CO2 in air. The tumor cells will be routinely subcultured twice weekly. The cells growing in an exponential growth phase will be harvested and counted for tumor inoculation. […]

NCI-H292 xenograft = assay: In vivo efficacy in NCI-H292 xenograft (NSCLC model) in BALB/c nude mice (Examples 1, 5, 9.5); conditions: Ex 1; all treatment animals during the dosing schedule
Excerpt: The animals will be randomized and treatment will be started when the average tumor volume reaches approximately 158-406 mm^3.
The objective of the research is to evaluate the in vivo anti-tumor efficacy of test articles in treatment of NCI-H292 xenograft in Balb/c nude mice.

NCI-H526 xenograft = conditions: 5 mg/kg biw (so in the source)
Description: (§1) The major endpoint was to see if the tumor growth could be delayed or mice could be cured. Tumor volume was measured three times weekly in two dimensions using a caliper, and the volume was expressed in mm^3 using the formula: V=0.5 a×b^2 where a and b are the long and short diameters of the tumor, respectively. The tumor size was then used for calculations of T/C value. The T/C value (in percent) is an indication of antitumor effectiveness; T and C are the mean volumes of the treated and control groups, respectively, on a given day.
(§2) TGI was calculated for each group using the formula: TGI (%)=[1−(Ti−T0)/(Vi−V0)]×100; Ti is the average tumor volume of a treatment group on a given day, T0 is the average tumor volume of the treatment group on the day of treatment start, Vi is the average tumor volume of the vehicle control group on the same day with Ti, and V0 is the average tumor volume of the vehicle group on the day of treatment start.
(§3) A one-way ANOVA was performed to compare tumor volume among groups, and when a significant F-statistics (a ratio of treatment variance to the error variance) was obtained, comparisons between groups were carried out with Games-Howell test. All data were analyzed using GraphPad Prism 5.0. P<0.05 was considered to be statistically significant. […]

A549 xenograft = assay: In vivo efficacy in A549 xenograft in Balb/c nude mice (Example 9.1); conditions: mouse
Description: as §1, §2, §3

MDA-MB-468 cell line = assay: HCS assay, Nectin-4 BDC binding study (Example 11); assay type: cell-based
Description: HCS assay was used in Nectin-4 BDC binding study. Cells were incubated with test agent and then washed. Detection was by a fluorescent antibody to MMAE.

SMILES	tolerability compared with Docetaxel (in words) [1]	retention of MMAE in tumour versus plasma (in words) [2]	animal bodyweight loss (HT-1376 xenograft)	bodyweight (in words) (NCI-H292 xenograft)	animal bodyweight loss (NCI-H526 xenograft)	bodyweight (in words) (A549 xenograft)	binding affinity (Kd) on MDA-MB-468 cell line (in words) (MDA-MB-468 cell line)	retention on the cells (in words) (MDA-MB-468 cell line; MDA-MB-468 cells, detection by fluorescent antibody to MMAE)
CC[C@H](C)C(C(CC(=O)N1CCC[C@H]1[C@H](OC)[C@@H](C)C(=O)NC(C)[C@@H](O)c1ccccc1)OC)N(C)C(=O)[C@@H](NC(=O)C(C(C)C)N(C)C(=O)OCc1ccc(NC(=O)[C@H](CCCNC(N)=O)NC(=O)C(NC(=O)CCCC(=O)NCCC(=O)N(C)CC(=O)N(C)CC(=O)N(C)CC(=O)N(C)CC(=O)N(C)CC(=O)N(C)CC(=O)N(C)CC(=O)N(C)CC(=O)N(C)CC(=O)N(C)CC(=O)N[C@H]2CSCCC(=O)N3CN4CN(C3)C(=O)CCSC[C@H](NC(=O)[C@@H](CC(=O)O)NC(=O)[C@H](Cc3cccc5ccccc35)NC(=O)[C@@H]3CCCN3C2=O)C(=O)N[C@@H](CCSC)C(=O)N[C@@H](CCCCNC(=N)N)C(=O)N[C@@H](CC(=O)O)C(=O)N[C@@H](Cc2c[nH]c3ccccc23)C(=O)N[C@@H](CO)C(=O)N[C@@H]([C@@H](C)O)C(=O)N2CCC[C@H]2C(=O)N2C[C@H](O)C[C@H]2C(=O)N[C@@H](Cc2c[nH]c3ccccc23)C(=O)N[C@H](C(N)=O)CSCCC4=O)C(C)C)cc1)C(C)C (stereo partly drawn) [BCY8245, MMAE-PABC-Cit-Val-Glutaryl-BCY8234] (I: [Sar][Sar][Sar][Sar][Sar][Sar][Sar][Sar][Sar][Sar]CP[1Nal][dD]CM[hArg]DWSTP[Hyp]WC-NH2 / II: [ξV][Cit][PABC][ξNMeV]V[X1][Dolaproine]-X2; linker I:11-I:15-I:25 via TATA; linker I:N-II:N via X3)	better tolerated than Docetaxel	MMAE was retained in the tumour longer than in plasma	over 10%	continued bodyweight loss	over 10%	maintained the bodyweight well		
CC[C@H](C)[C@@H]([C@@H](CC(=O)N1CCC[C@H]1[C@H](OC)[C@@H](C)C(=O)N[C@H](C)[C@@H](O)c1ccccc1)OC)N(C)C(=O)[C@@H](NC(=O)[C@@H](NC)C(C)C)C(C)C [MMAE, Monomethyl auristatin E] (H-[NMeV]V[Dil][Dolaproine]-X4)							almost no detectable binding affinity	minimal retention
